Measurements from article PMC4684421 (Protein expression and purification, 2015).
Read-outs that look alike come from different tables or passages of the source.

T1: Papain (UniProt P00784 134-345)
T1 sequence (looked up): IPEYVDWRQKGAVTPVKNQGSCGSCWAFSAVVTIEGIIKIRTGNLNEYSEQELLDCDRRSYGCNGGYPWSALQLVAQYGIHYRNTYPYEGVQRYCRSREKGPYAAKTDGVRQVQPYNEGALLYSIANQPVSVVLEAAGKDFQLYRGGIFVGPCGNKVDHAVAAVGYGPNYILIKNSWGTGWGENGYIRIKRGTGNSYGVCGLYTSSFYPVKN


How the values were obtained:
Assay in all cases: enzyme inhibition kinetics
[1] = biological target: Cathepsin B (human)
[2] = biological target: Cathepsin B (human); remark: listed apart in the source
[3] = biological target: T1, Papain
[4] = biological target: T1, Papain; remark: listed apart in the source

Row | Ki [1] | Ki [2] | Ki [3] | Ki [4] | Molecule
1 | 0.06 nM | 0.1 nM |  |  | Human cystatin C (from UniProt P01034 27-146) (natural protein)
2 |  |  | < 0.005 nM | < 0.007 nM | Human cystatin C (natural protein, UniProt P01034 27-146, looked up) SSPGKPPRLVGGPMDASVEEEGVRRALDFAVGEYNKASNDMYHSRALQVVRARKQIVAGVNYFLDVELGRTTCTKTQPNLDNCPFHDQPHLKRKAFCSFQIYAVPWQGTMTLSKSTCQDA
